This test deals with PDCD6 (ALG-2) construct (rat, UniProt G3V7W1 1-191). Put plainly: SPR; 0 added Ca2+.

Our source for the Kd values is PMC10002499 (2023).

By Kd is commonly meant the free concentration of one partner at which half of the binding sites on the other are occupied at equilibrium, for simple one-to-one binding.

PDCD6 (ALG-2) construct, sequence (G3V7W1 whole entry): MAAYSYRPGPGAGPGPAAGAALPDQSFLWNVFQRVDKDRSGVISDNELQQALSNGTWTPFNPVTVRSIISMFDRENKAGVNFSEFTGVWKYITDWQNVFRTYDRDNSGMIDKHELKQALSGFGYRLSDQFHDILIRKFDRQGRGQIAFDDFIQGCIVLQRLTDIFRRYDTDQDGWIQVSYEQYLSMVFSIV

B1: dysferlin extended C2DE region (aa 1284-1576) (domain or fragment)
chain: AIHHIPGFEMHETSRILDETEDTDLPYPPPQREANIYMVPQNIKPALQRTAIEILAWGLRNIKSYQMASVSSPSLVVECGGQTVQSCVIRNLRKNPNFDVCTLFMEVMLPREDLYCPPIVVKVIDNRQFGRRPVVGQCTIRSLENFLCDPYSAESPSPQGGPDDVSLLSPGEDVLIDIDDKEPLIPVQEEEFIDWWSKFFASIGEREKCGSYLEKDFDTLKVYDTQLENVEAFGGLSDFCNTFKLYRGKTQEDTEDPSVIGEFKGLFKIYPLPEDPAIPMPPRQFHQLAAQGP
In turn, B1 registered a Kd of 160 nM.
